Here are results for 1 molecule from article PMC9240080 (Nature Communications, 2022).

The assay has as its target SARS-CoV RBD-His8-SpyTag003 (SARS-CoV, UniProt P59594, heterogeneous N-linked glycosylation). Briefly: ELISA. As to conditions: both partners purified.

B1: EY6A (antibody, V domains shown)
VH: EVQLVESGGGVVQPGRSLRLSCAASAFTFSSYDMHWVRQAPGKGLEWVAVISYDGSNKYYADSVKGRFTISRDNSKNTLYLQMNSLRAEDTAVYYCAKDGGKLWVYYFDYWGQGTLVTVSS
VL: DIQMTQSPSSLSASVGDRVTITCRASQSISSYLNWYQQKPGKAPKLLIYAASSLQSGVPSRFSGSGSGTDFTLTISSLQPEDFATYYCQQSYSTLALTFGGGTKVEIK
For the molecule B1, the binding result was “binds”.
